The assay deals with T1, GST-Rb 379–928 (UniProt P06400 379-928).
T1 sequence (looked up): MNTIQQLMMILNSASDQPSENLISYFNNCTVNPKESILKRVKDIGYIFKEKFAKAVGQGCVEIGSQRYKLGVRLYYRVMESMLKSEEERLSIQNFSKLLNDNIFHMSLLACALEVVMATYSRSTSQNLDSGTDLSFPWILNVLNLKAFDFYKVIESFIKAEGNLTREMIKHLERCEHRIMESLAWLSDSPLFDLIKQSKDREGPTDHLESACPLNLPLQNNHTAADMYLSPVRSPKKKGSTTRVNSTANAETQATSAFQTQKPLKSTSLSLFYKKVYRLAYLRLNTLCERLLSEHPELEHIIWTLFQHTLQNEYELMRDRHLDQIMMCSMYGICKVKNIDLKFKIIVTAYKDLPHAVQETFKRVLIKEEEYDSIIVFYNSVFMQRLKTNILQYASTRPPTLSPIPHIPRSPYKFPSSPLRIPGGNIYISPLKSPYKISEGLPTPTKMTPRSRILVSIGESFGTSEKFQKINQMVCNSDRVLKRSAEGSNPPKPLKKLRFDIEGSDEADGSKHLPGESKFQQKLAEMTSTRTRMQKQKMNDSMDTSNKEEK
In words: AlphaScreen or HTRF.

B1: MBP-E2F1 (natural protein)
chain: not shown
Regarding B1, the binding result was “binds”.

The values are drawn from article PMC12532034 (Cancer immunology research, 2025).
